According to patent publication US8444990:

Tests used:
[1] = target: soluble Her2 (Her2 extracellular ligand binding domain, residues 1-653, fused to the FLAG sequence) (UniProt P04626); assay: EIA, plate coated with sHer2, control IgG at 10 ng/ml, absorbance at 405 nm
[2] = target: soluble Her3 (Her3 extracellular domain) (UniProt P21860); assay: EIA, plate coated with sHer3, control IgG at 100 µg/ml, absorbance at 405 nm
[3] = target: soluble Her4 (Her4 receptor extracellular domain, residues 1 to 639) (human) (UniProt Q15303); assay: EIA, plate coated with sHer4, control IgG at 100 µg/ml, absorbance at 405 nm
UniProt Q15303, sequence (Q15303 other isoform, or with tags, fused parts or gaps limits assumed, form in doubt): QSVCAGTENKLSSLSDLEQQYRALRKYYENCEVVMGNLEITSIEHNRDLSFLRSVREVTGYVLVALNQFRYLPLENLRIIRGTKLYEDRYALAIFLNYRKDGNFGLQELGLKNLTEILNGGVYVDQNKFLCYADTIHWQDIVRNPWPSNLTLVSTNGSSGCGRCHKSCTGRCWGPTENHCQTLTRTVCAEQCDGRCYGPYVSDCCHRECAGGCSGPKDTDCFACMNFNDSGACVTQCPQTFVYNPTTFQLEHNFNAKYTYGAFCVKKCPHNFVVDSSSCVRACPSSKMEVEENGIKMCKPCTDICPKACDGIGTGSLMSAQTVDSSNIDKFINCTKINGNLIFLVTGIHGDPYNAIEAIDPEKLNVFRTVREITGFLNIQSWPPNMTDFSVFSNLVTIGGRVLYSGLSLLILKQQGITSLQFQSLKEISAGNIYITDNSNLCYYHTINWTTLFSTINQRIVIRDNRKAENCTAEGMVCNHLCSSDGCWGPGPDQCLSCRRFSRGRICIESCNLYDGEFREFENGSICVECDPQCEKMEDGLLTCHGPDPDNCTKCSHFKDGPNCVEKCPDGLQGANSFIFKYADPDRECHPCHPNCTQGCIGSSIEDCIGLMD

UniProt P21860, sequence (P21860 20-643 limits assumed): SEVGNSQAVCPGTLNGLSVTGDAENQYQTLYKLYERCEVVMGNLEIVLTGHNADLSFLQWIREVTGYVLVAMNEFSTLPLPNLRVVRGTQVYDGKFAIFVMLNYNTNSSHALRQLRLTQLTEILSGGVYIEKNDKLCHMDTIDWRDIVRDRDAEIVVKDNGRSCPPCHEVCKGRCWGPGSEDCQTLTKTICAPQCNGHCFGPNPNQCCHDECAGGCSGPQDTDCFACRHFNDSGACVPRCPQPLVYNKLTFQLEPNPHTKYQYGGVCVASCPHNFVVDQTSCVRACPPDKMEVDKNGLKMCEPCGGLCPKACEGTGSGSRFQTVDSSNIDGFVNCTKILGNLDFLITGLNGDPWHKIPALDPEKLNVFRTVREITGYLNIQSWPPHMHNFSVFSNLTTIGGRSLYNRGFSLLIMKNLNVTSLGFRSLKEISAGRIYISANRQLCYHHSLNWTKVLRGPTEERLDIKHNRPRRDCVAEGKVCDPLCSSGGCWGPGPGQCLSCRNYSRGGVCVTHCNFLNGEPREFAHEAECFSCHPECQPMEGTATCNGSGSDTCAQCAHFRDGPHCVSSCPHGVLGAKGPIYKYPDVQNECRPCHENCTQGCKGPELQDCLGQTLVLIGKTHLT

O.D. of 10 ng/ml [1]: 0.09 O.D. | O.D. of 100 ug/ml [2]: 1.2 O.D. | O.D. of 100 ug/ml [3]: 0.9 O.D.
Substance: Mouse IgG (antibody)
